The supplement of paper PMC5998384

Columns and labels:
[1] = tested on: HeLa Kyoto; test: solubility in G1/S (NP-40 vs SDS abundance) (log2 ratio); higher = more soluble; details: cell cycle stage: G1/S
[2] = tested on: HeLa Kyoto; test: solubility change mitosis vs G1/S (difference of NP-40 vs SDS log2 ratios) (log2 ratio difference); higher = more soluble in mitosis
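For solubility change mitosis vs G1/S (difference of NP-40 vs SDS log2 ratios) in this document: synchronized HeLa Kyoto cells (double thymidine block for G1/S, nocodazole release for mitosis), protein amounts in NP-40 versus SDS lysates quantified by mass spectrometry, three biological replicates.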
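For solubility in G1/S (NP-40 vs SDS abundance) in this document: HeLa Kyoto cells arrested at G1/S by double thymidine block, proteins quantified by TMT10plex mass spectrometry in mild NP-40 versus SDS extracts, three biological replicates.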

| Sequence | solubility in G1/S (log2) [1] | solubility change mitosis (log2) [2] |
| --- | --- | --- |
| MDDDLMLALRLQEEWNLQEAERDHAQESLSLVDASWELVDPTPDLQALFVQFNDQFFWGQLEAVEVKWSVRMTLCAGICSYEGKGGMCSIRLSEPLLKLRPRKDLVETLLHEMIHAYLFVTNNDKDREGHGPEFCKHMHRINSLTGANITVYHTFHDEVDEYRRHWWRCNGPCQHRPPYYGYVKRATNREPSAHDYWWAEHQKTCGGTYIKIKEPENYSKKGKGKAKLGKEPVLAAENKDKPNRGEAQLVIPFSGKGYVLGETSNLPSPGKLITSHAINKTQDLLNQNHSANAVRPNSKIKVKFEQNGSSKNSHLVSPAVSNSHQNVLSNYFPRVSFANQKAFRGVNGSPRISVTVGNIPKNSVSSSSQRRVSSSKISLRNSSKVTESASVMPSQDVSGSEDTFPNKRPRLEDKTVFDNFFIKKEQIKSSGNDPKYSTTTAQNSSSSSSQSKMVNCPVCQNEVLESQINEHLDWCLEGDSIKVKSEESL [SPRTN] | -0.206 | 0.0242 |
| MDDSDTPTYYLQIEPQDGCHPGDSVERSVTCLPSASDENENQLDGDGHEHLTSSDSAMGKPQVSEQDSLNNNESCTLSCEVAAGENLQNTLCEASRDEQAFLGKDKKIPGKRSPRSKKGTAKKIPPGLFSGDIAPLMQEKVLSAVTYAVDDEEAAEVNANEQPEAPKLVLQSLFSLIRGEVEQLDSRALPLCLHQIAESYFQEEDYEKAMKFIQLERLYHEQLLANLSAIQEQWETKWKTVQPHTVTALRNSEKGFNGEDFERLTKICATHQDPLLSKHKIAAVEKSQERKCSTQLLVSEDPKEGGATTKESESKTCLGTESSKESQHTVEPLGSSPCCHQMDVQTDSPSLSVTAGKDHMEELLCSAEATLALHTQSSETAGSPSGPDSSEDACEDDSRLQLAQTEACQDVARIEGIAEDPKVFLSSKSKTEPLISPGCDRIPPALISEGKYSQAQRKELRLPLRDASEALPTDQLENNELNELQQPDLTDSDGKSPQAQADSDGSENVLCGNNQISDLGILLPEVCMAPEEKGDKDDQLNKETEDYLNSLLEGCLKDTEDSLSYEDNQDDDSDLLQDLSPEEASYSLQENLPSDESCLSLDDLAKRIEIAEVVPTEGLVSILKKRNDTVGDHPAQMQHKPSKRRVRFQEIDDSLDQDEVGGGSCILLVLLCIATVFLSVGGTALYCTFGDMESPVCTDFADNMDFYYTKLLQGVAELKHWIYLS [CNST] | 0.292 | -0.0548 |
| MDGAVMEGPLFLQSQRFGTKRWRKTWAVLYPASPHGVARLEFFDHKGSSSGGGRGSSRRLDCKVIRLAECVSVAPVTVETPPEPGATAFRLDTAQRSHLLAADAPSSAAWVQTLCRNAFPKGSWTLAPTDNPPKLSALEMLENSLYSPTWEGSQFWVTVQRTEAAERCGLHGSYVLRVEAERLTLLTVGAQSQILEPLLSWPYTLLRRYGRDKVMFSFEAGRRCPSGPGTFTFQTAQGNDIFQAVETAIHRQKAQGKAGQGHDVLRADSHEGEVAEGKLPSPPGPQELLDSPPALYAEPLDSLRIAPCPSQDSLYSDPLDSTSAQAGEGVQRKKPLYWDLYEHAQQQLLKAKLTDPKEDPIYDEPEGLAPVPPQGLYDLPREPKDAWWCQARVKEEGYELPYNPATDDYAVPPPRSTKPLLAPKPQGPAFPEPGTATGSGIKSHNSALYSQVQKSGASGSWDCGLSRVGTDKTGVKSEGST [DOK1] | -0.257 | 0.00435 |
| MDPGWGQRDVGWAALLILFAASLLTVFAWLLQYARGLWLARARGDRGPGPALAGEPAGSLRELGVWRSLLRLRATRAGAAEEPGVRGLLASLFAFKSFRENWQRAWVRALNEQACRNGSSIQIAFEEVPQLPPRASISHVTCVDQSEHTMVLRCQLSAEEVRFPVSVTQQSPAAVSMETYHVTLTLPPTQLEVNLEEIPGEGLLISWAFTDRPDLSLTVLPKLQARERGEEQVELSTIEELIKDAIVSTQPAMMVNLRACSAPGGLVPSEKPPMMPQAQPAIPRPNRLFLRQLRASHLGNELEGTEELCCVAELDNPMQQKWTKPARAGSEVEWTEDLALDLGPQSRELTLKVLRSSSCGDTELLGQATLPVGSPSRPLSRRQLCPLTPGPGKALGPAATMAVELHYEEGSPRNLGTPTSSTPRPSITPTKKIELDRTIMPDGTIVTTVTTVQSRPRIDGKLDSPSRSPSKVEVTEKTTTVLSESSGPSNTSHSSSRDSHLSNGLDPVAETAIRQLTEPSGRVAKKTPTKRSTLIISGVSKVPIAQDELALSLGYAASLEASVQDDAGTSGGPSSPPSDPPAMSPGPLDALSSPTSVQEADETTRSDISERPSVDDIESETGSTGALETRSLKDHKVSFLRSGTKLIFRRRPRQKEAGLSQSHDDLSNATATPSVRKKAGSFSRRLIKRFSFKSKPKANGNPSPQL [C2CD2L] | -0.0395 | -0.0722 |
| MDPQPPPPAQGSPPHRGRGRGRGRGRGRGRGRGRGGAGAPRAPLPCPTCGRLFRFPYYLSRHRLSHSGLRPHACPLCPKAFRRPAHLSRHLRGHGPQPPLRCAACPRTFPEPAQLRRHLAQEHAGGEVELAIERVAKETAEPSWGPQDEGSEPPTTAAAGATEEEAVAAWPETWPAGEPSTLAAPTSAAEPRESESEEAEAGAAELRAELALAAGRQEEKQVLLQADWTLLCLRCREAFATKGELKAHPCLRPEGEQEGEGGPPPRPKRHQCSICLKAFARPWSLSRHRLVHSTDRPFVCPDCGLAFRLASYLRQHRRVHGPLSLLAPLPAAGKKDDKASGARNSAKGPEGGEGAECGGASEGGEGQNGGDAAPARPPAGEPRFWCPECGKGFRRRAHLRQHGVTHSGARPFQCVRCQREFKRLADLARHAQVHAGGPAPHPCPRCPRRFSRAYSLLRHQRCHRAELERAAALQALQAQAPTSPPPPPPPLKAEQEEEGLPLPLANIKEEPPSPGTPPQSPPAPPVFLSASCFDSQDHSAFEMEEEEVDSKAHLRGLGGLAS [ZNF579] | -0.0421 | 0.288 |
| MDPRGTKRGAEKTEVAEPRNKLPRPAPSLPTDPALYSGPFPFYRRPSELGCFSLDAQRQYHGDARALRYYSPPPTNGPGPNFDLRDGYPDRYQPRDEEVQERLDHLLCWLLEHRGRLEGGPGWLAEAIVTWRGHLTKLLTTPYERQEGWQLAASRFQGTLYLSEVETPNARAQRLARPPLLRELMYMGYKFEQYMCADKPGSSPDPSGEVNTNVAFCSVLRSRLGSHPLLFSGEVDCTDPQAPSTQPPTCYVELKTSKEMHSPGQWRSFYRHKLLKWWAQSFLPGVPNVVAGFRNPDGFVSSLKTFPTMKMFEYVRNDRDGWNPSVCMNFCAAFLSFAQSTVVQDDPRLVHLFSWEPGGPVTVSVHQDAPYAFLPIWYVEAMTQDLPSPPKTPSPK [DXO] | 0.0451 | -0.2 |
| MDPRVAWIQPEQKGPANALWMQIWETSQGVGRGGSGFASYFCLNSPALDTAAAAGAAGRGSGGLGPALPAASPPPPGPTAPAALPPALLTALGPAAEGARRLHKSPSLSSSSSSSSSNAESGTESPGCSSSSSSSASLGRPGGGRGGAFFNFADGAPSAPGTANGHPGPRGPAPAGSPSQHQFHPGRRKRENKASTYGLNYLLSGSRAAALSGGGGPGAQAPRPGTPWKSRAYSPGIQGLHEEIIDFYNFMSPCPEEAAMRREVVKRIETVVKDLWPTADVQIFGSFSTGLYLPTSDIDLVVFGKWERPPLQLLEQALRKHNVAEPCSIKVLDKATVPIIKLTDQETEVKVDISFNMETGVRAAEFIKNYMKKYSLLPYLILVLKQFLLQRDLNEVFTGGISSYSLILMAISFLQLHPRIDARRADENLGMLLVEFFELYGRNFNYLKTGIRIKEGGAYIAKEEIMKAMTSGYRPSMLCIEDPLLPGNDVGRSSYGAMQVKQVFDYAYIVLSHAVSPLARSYPNRDAESTLGRIIKVTQEVIDYRRWIKEKWGSKAHPSPGMDSRIKIKERIATCNGEQTQNREPESPYGQRLTLSLSSPQLLSSGSSASSVSSLSGSDVDSDTPPCTTPSVYQFSLQAPAPLMAGLPTALPMPSGKPQPTTSRTLIMTTNNQTRFTIPPPTLGVAPVPCRQAGVEGTASLKAVHHMSSPAIPSASPNPLSSPHLYHKQHNGMKLSMKGSHGHTQGGGYSSVGSGGVRPPVGNRGHHQYNRTGWRRKKHTHTRDSLPVSLSR [PAPD7] | -0.21 | 0.0856 |
